Laboratory results: paper PMC11601603

Target: Citrobacter sp. RHBSTW-00271 Ubl3 (Citrobacter sp. RHBSTW-00271)
Test: SEC-MALS

- stoichiometry N: 2
Substance: Citrobacter sp. RHBSTW-00271 Ubl3 (domain or fragment)
